We go through one molecule from article PMC11017283 (Journal of Lipid Research, 2024).

The experiment addresses T1, mouse LPL (p.R324A) (mouse, UniProt P11152 28-474, p.R324A).
T1 sequence (looked up): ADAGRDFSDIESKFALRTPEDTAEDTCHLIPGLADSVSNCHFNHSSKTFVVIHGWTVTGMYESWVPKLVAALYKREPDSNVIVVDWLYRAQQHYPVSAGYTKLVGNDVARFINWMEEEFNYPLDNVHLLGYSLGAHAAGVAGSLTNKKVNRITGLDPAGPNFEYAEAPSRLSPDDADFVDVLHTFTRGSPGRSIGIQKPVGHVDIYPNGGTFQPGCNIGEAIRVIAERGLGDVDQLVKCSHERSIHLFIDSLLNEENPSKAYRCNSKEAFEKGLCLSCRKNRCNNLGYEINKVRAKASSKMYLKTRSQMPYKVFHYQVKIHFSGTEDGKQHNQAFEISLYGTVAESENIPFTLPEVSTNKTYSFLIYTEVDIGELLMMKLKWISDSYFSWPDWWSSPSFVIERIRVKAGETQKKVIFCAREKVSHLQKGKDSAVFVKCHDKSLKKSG
The experiment can be described thus: native gel or EMSA. Background: Mobility shift assays separate free from complexed probe on a gel.

B1: recombinant human GPIHBP1, soluble (residues 1-131) (domain or fragment, UniProt Q8IV16 21-151, looked up)
chain: QTQQEEEEEDEDHGPDDYDEEDEDEVEEEETNRLPGGRSRVLLRCYTCKSLPRDERCNLTQNCSHGQTCTTLIAHGNTESGLLTTHSTWCTDSCQPITKTVEGTQVTMTCCQSSLCNVPPWQSSRVQDPTG
As to B1, the binding result is on record as “binds”.
